These results are taken from US20240270840A1 (NECTIN THERAPEUTICS, published 2024).

The target in assay [1] is T1, Human CD112R (PVRIG) (human, UniProt Q6DKI7 41-171, limits assumed).
T1 sequence (looked up): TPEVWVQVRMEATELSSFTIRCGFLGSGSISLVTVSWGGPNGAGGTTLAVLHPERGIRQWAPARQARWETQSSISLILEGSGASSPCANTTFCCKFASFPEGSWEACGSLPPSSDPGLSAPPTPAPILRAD
Nature of the assay: affinity of glycosylation-motif variants (Table 2; method not named there).

Assay [2] addresses Cynomolgus monkey (Macaca fascicularis) CD112R expressed on cells (cynomolgus monkey (Macaca fascicularis)). Nature of the assay: flow cytometry on cynomolgus CD8 T cells (endogenous CD112R).
Assay [3] has the same target. Nature of the assay: flow cytometry; EC-50 on cynomolgus CD8 T cells against EC-50 on human NK cells. In general terms: A flow cytometer gives signals particle by particle.
Assay [4] concerns the target T2, Human CD112R expressed on cells (human, UniProt Q6DKI7 1-326).
T2 construct: whole, on cells; also called HuCD112R; hCD112R
T2 sequence (looked up): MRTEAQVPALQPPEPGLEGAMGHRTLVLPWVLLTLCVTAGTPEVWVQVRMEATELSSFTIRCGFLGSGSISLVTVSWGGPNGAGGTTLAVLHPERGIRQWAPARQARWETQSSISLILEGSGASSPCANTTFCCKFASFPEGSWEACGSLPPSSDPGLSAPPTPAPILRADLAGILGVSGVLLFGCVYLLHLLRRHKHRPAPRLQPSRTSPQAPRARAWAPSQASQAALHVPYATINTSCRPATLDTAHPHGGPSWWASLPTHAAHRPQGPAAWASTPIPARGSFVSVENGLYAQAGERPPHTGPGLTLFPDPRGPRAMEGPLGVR
In words: flow cytometry competition on 293T cells overexpressing CD112R; antibody 40-0.018 nM; competitor hNectin-2-mIgG2a at 125 nM. Here is the method: The humanized anti-CD112R antibodies are potent blockers of CD112R—Nectin-2 interactions. […] The antibodies were added in a range of concentrations of 40-0.018 nM in a series of three-fold dilutions. The amount of bound hNectin-2-mIgG2a was detected by anti-mouse antibodies fluorescently labeled with Dy-light 647 (115-606-071 Jackson immunoresearch) and analyzed by FACS.

The target of assay [5] is T2, Human CD112R expressed on cells. Nature of the assay: flow cytometry; max binding on human NK cells against max binding on cynomolgus CD8 T cells. Here is the method:
(§1) The humanized mAbs were tested for binding of endogenous and overexpressed human and cynomolgus CD112R.
(§2) Table 7 summarizes EC50 values calculated based on the binding curves of selected humanized mAbs to cynomolgus CD8 T cells and human NK cells, both cells expressing endogenous CD112R of the relevant species. Assay was performed as in Table 6. An anti-CD112R mAb disclosed in WO2016134333 was used for comparison. All the humanized variants have a complete cross-reactivity between the human and cynomolgus targets.

For assay [6], the target named is T1, Human CD112R (PVRIG). In words: SPR (Biacore); purified full antibody. Background: In SPR one partner is held on a chip, and binding of the other changes the refractive index at the surface.
Assay [7] concerns the target Cynomolgus monkey (Macaca fascicularis) CD112R expressed on cells (cynomolgus monkey (Macaca fascicularis)). Nature of the assay: flow cytometry on 293T cells; EC50 on cynomolgus CD112R against EC50 on human CD112R.
Assay [8] deals with T2, Human CD112R expressed on cells. Nature of the assay: flow cytometry on 293T cells expressing human CD112R; 99-0.05 nM, three-fold dilutions. Here is the method:
as §1

The target of assay [9] is Cynomolgus monkey (Macaca fascicularis) CD112R expressed on cells (cynomolgus monkey (Macaca fascicularis)). In words: flow cytometry on 293T cells expressing cynomolgus CD112R; 99-0.05 nM, three-fold dilutions.
For assay [10], the target named is T2, Human CD112R expressed on cells. In words: flow cytometry on human NK cells (endogenous CD112R). Here is the method: as §1, §2
For assay [11] the target is unchanged. The description is as above. The source holds these as a separate data set.
Assay [12] has the same target. Nature of the assay: FACS, chimeric mAb 99-0.4 nM in three-fold dilutions on HEK 293T cells overexpressing CD112R, anti-human-APC 1:200. On the procedure:
For detection, anti-human-APC antibody (Ab) was used at 1:200 dilution, and cell binding was analyzed by FACS. FIG. 3C—8866 cells ([…]) overexpressing human Nectin-2 were incubated with 10 μg/ml of CD112R-Fc in the presence of isotype control Ab, or with the indicated clones at 4 μg/ml. Bound CD112R-Fc was detected by anti-mouse-Dy-647 1:250 dilution and analyzed by FACS. The blocking of CD112R binding exceeded 95% by all the variants.
Binding was analyzed by FACS and used for calculation of EC-50 values. […] The N31S variant, engineered to remove an N-Linked glycosylation motif at the CDR1 of the heavy chain, had improved (sub-nM) binding to human CD112R in this cell-based assay.

Assay [13] has as its target T1, Human CD112R (PVRIG). In words: SPR (Biacore); purified full antibody; * limit of the Biacore instrument sensitivity.
Assay [14] concerns the target T2, Human CD112R expressed on cells. In words: flow cytometry EC-50 on human NK cells, against the reference Ab (member assigned from Table 7).

Changes are numbered by the printed parent chain. Numbers in names are those of the source. Where only a bound is given, the exact number is not on record here.

B1: VH0 N28A Vk0 (antibody, human IgG1, V domains shown)
VH: QVQLQQPGAELVKPGTSVKLSCKASGYAFTSYWINWVKLRPGQGLEWIGDIYPGSYIPNYNEKFKNKATLTVDTSSSTAYMQLTSLASEDSALYYCAGGYFDVWGAGTTVTVSS
VL: DIVMTQSPSSLSVSAGEKVTMSCKSSQSLLSSGNQKNYLAWYQQKPGQPPKLLIYGASTRESGVPDRFTGSGSGTDFTLTISSVQAEDLAVYYCQNDHSYPYTFGGGTKLEIK
notes: Variant of VH0K0
Consider B1, for which, in assay [1], the Kd (commonly a measure of binding affinity in units of concentration) came out at 0.15 nM and the “Relative Kd (against VH0Vk0)” value was determined as 0.9.

B2: H11K2 (full humanized antibody) (antibody, V domains shown)
VH: QVQLVQSGAEVKKPGSSVKVSCKASGYTFTSYWINWVRQAPGQGLEWIGDIYPGSYIPNYNEKFKNRATLTVDTSASTAYMELSSLRSEDTAVYYCAGGYFDVWGQGTTVTVSS
VL: B1 VL with S9D, S12A, A15L, K18R, V19A, M21I, S22N, V84L, L89V, G106Q
notes: Humanized full antibody, human IgG1; also called VH11K2
Take B2: in assay [2], the EC50 (as a rule, the concentration that produces a half-maximal response) was determined as 1.29 nM and the Max binding Cyno (MFI a.u - background) is 839 MFI a.u. Also, the Ratio Cyno/Hu (EC-50) in [3] was 1.22. Also, in assay [4], the EC50 worked out at 0.32 nM and the EC-90 was 9.9 nM. For the same molecule, in [5], the “Ratio Hu/Cyno (max binding)” value turned out to be 1.21. Also, in assay [6], the Kd turned out to be 0.112 nM; the “Relative Kd (against VH0K0 N28T)” value turned out to be 0.89; the koff (usually a measure of how fast the partners let go of each other) was determined as 3.77e-05 s⁻¹; the kon – broadly, a measure of how fast the partners come together – came to 336000 M⁻¹ s⁻¹. In addition, the Ratio Cyno/Hu (EC50) in assay [7] turned out to be 2.54. Moreover, the EC50 in assay [8] was found to be 0.28 nM. This molecule also returned an EC50 in assay [9] of 0.71 nM. This molecule gave an EC50 in [10] of 1.06 nM. The “Max binding Hu (MFI a.u - background)” value in assay [11] was found to be 1020 MFI a.u.

B3: Clone 15 (antibody, V domains shown)
VH: B1 VH with A28N, Y52F, I57S, E62K, N66R, T84S
VL: B1 VL with S31N, N34S, S83F
Consider B3, for which the response in assay [12] was half-maximal at 1.29 nM (EC50).

B4: VH0 N28S Vk0 (antibody, human IgG1, V domains shown)
VH: B1 VH with A28S
VL: B1 VL
notes: Variant of VH0K0
For B4, in assay [1], the Kd worked out at 0.116 nM and the “Relative Kd (against VH0Vk0)” value came out at 0.66.

B5: VH0 N28Q Vk0 (antibody, human IgG1, V domains shown)
VH: B1 VH with A28Q
VL: B1 VL
notes: Variant of VH0K0
Take B5: in assay [1], the Kd is 0.116 nM and the “Relative Kd (against VH0Vk0)” value amounted to 0.69.

B6: H11K3 (full humanized antibody) (antibody, V domains shown)
VH: B2 VH
VL: DIVMTQSPDSLAVSLGERATINCKSSQSLLSSGNQKNYLAWYQQKPGQPPKLLIYGASTRESGVPDRFSGSGSGTDFTLTISSLQAEDVAVYYCQNDHSYPYTFGQGTKLEIK
notes: Humanized full antibody comprising hIgG1 Fc; also called VH11K3
In [2], B6 registered a concentration for a half-maximal effect (EC50) of 1.27 nM and a Max binding Cyno (MFI a.u - background) of 833 MFI a.u. In addition, the Ratio Cyno/Hu (EC-50) in assay [3] was found to be 1.14. In [4], the EC50 stood at 0.26 nM and the EC-90 was 9.6 nM. For the same molecule, in [13], the affinity, expressed as Kd, was 0.0788 nM; the “Relative Kd (against VH0K0 N28T)” value stood at 0.63; the koff was found to be 2.42e-05 s⁻¹; the kon came out at 307000 M⁻¹ s⁻¹. For the same molecule, the “Ratio Hu/Cyno (max binding)” value in [5] worked out at 1.21. Besides, the Ratio Cyno/Hu (EC50) in [7] amounted to 1.93. The EC50 in assay [8] was 0.31 nM. The same molecule displayed an EC50 in [9] of 0.6 nM. In addition, the EC50 in assay [10] was 1.11 nM. Also, the “Max binding Hu (MFI a.u - background)” value in assay [11] worked out at 1000 MFI a.u.

B7: VH10K2 (full humanized antibody) (antibody, V domains shown)
VH: B2 VH with R87A, V93L
VL: B6 VL with S69T
notes: Humanized full antibody, human IgG1
With B7, in assay [2], the EC50 is 1.45 nM and the Max binding Cyno (MFI a.u - background) worked out at 914 MFI a.u. The Ratio Cyno/Hu (EC-50) in [3] was 1.69. Moreover, the “fold improved binding compared to the reference Ab” value in assay [14] is more than 2 fold. In addition, the “Ratio Hu/Cyno (max binding)” value in [5] came to 1.07. In assay [6], binding was put at a Kd of 0.119 nM, the “Relative Kd (against VH0K0 N28T)” value amounted to 0.94, the koff is 4.27e-05 s⁻¹ and the kon was 359000 M⁻¹ s⁻¹. The Ratio Cyno/Hu (EC50) in assay [7] was found to be 1.07. Moreover, the EC50 in [8] came to 0.4 nM. In assay [9], the EC50 worked out at 0.42 nM. The molecule also returned a half-maximal effective concentration (EC50) in assay [10] of 0.86 nM. In addition, the “Max binding Hu (MFI a.u - background)” value in assay [11] worked out at 975 MFI a.u.

B8: VH10K3 (full humanized antibody) (antibody, V domains shown)
VH: B2 VH with R87A, V93L
VL: B6 VL
notes: as for B7
Regarding B8, in assay [2], the EC50 was 1.39 nM and the Max binding Cyno (MFI a.u - background) was determined as 933 MFI a.u. For the same molecule, in assay [3], the Ratio Cyno/Hu (EC-50) was determined as 1.81. In assay [14], the “fold improved binding compared to the reference Ab” value was more than 2 fold. Besides, in [5], the “Ratio Hu/Cyno (max binding)” value turned out to be 1.06. In addition, in assay [6], binding was characterised by a dissociation constant (Kd) of 0.121 nM, the “Relative Kd (against VH0K0 N28T)” value came out at 0.96, the koff was determined as 4.36e-05 s⁻¹ and the on-rate constant (kon) is 361000 M⁻¹ s⁻¹. The Ratio Cyno/Hu (EC50) in assay [7] was 1.67. In assay [8], this molecule came in with a concentration for a half-maximal effect (EC50) of 0.3 nM. In assay [9], this molecule displayed an EC50 of 0.5 nM. The same molecule returned an EC50 in [10] of 0.77 nM. Further, the “Max binding Hu (MFI a.u - background)” value in assay [11] is 988 MFI a.u.

B9: VH0 N28D Vk0 (antibody, human IgG1, V domains shown)
VH: B1 VH with A28D
VL: B1 VL
notes: Variant of VH0K0 without the N-linked glycosylation motif of heavy chain CDR1
Turning to B9, in assay [1], the Kd came out at 0.122 nM and the “Relative Kd (against VH0Vk0)” value was 0.73.

B10: VH0 N28T Vk0 (antibody, V domains shown)
VH: B1 VH with A28T
VL: B1 VL
notes: Variant of VH0K0; also called VH0K0 N28T
As for B10, in assay [1], the Kd stood at 0.102 nM and the “Relative Kd (against VH0Vk0)” value came to 0.61. Further, in [6], the affinity, expressed as Kd, was 0.126 nM; the “Relative Kd (against VH0K0 N28T)” value was 1; the koff is 5.02e-05 s⁻¹; the kon is 400000 M⁻¹ s⁻¹.

B11: VH0 T30A Vk0 (antibody, human IgG1, V domains shown)
VH: B1 VH with A28N, T30A
VL: B1 VL
notes: Variant of VH0K0
B11: in assay [1], the Kd amounted to 0.106 nM and the “Relative Kd (against VH0Vk0)” value was determined as 0.63.
